In article doi:10.1101/2025.05.21.655431 (bioRxiv, 2025):
Read-outs that look alike come from different tables or passages of the source.

Experiments:
His-WRKY48 (recombinant) = His-WRKY48 (recombinant) (Arabidopsis thaliana, UniProt Q9FGZ4 1-399); test: pull-down
WRKY8 [1] = target: T1, WRKY8 (Arabidopsis thaliana, UniProt Q9FL26 1-326); test: EMSA
WRKY28 [2] = target: T2, WRKY28 (Arabidopsis thaliana, UniProt Q8VWJ2 1-318); test: EMSA
WRKY48 [3] = target: T3, WRKY48 (Arabidopsis thaliana, UniProt Q9FGZ4 1-399); test: EMSA
WRKY8 [4] = target: T1, WRKY8; test: EMSA; remark: listed apart in the source
WRKY28 [5] = target: T2, WRKY28; test: EMSA; remark: listed apart in the source
WRKY48 [6] = target: T3, WRKY48; test: EMSA; remark: listed apart in the source

T2 sequence (Q8VWJ2 whole entry): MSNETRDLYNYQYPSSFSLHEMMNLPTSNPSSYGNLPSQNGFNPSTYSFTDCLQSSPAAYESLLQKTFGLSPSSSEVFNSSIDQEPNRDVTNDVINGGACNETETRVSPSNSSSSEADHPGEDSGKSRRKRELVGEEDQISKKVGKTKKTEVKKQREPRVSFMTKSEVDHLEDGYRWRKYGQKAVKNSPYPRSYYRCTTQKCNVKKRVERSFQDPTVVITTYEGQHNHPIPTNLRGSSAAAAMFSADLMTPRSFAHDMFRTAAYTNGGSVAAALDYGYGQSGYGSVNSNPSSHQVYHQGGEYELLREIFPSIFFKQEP
T1 sequence (Q9FL26 whole entry): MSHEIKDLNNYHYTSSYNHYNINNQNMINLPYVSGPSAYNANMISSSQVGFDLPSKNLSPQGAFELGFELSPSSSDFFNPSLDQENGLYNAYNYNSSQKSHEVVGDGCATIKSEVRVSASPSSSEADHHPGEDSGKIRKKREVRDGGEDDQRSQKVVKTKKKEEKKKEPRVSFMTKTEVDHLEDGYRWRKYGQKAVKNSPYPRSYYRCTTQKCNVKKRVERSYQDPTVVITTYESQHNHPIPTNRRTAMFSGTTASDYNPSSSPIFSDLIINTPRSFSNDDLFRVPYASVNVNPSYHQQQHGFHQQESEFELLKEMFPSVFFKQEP
T3 sequence (Q9FGZ4 whole entry): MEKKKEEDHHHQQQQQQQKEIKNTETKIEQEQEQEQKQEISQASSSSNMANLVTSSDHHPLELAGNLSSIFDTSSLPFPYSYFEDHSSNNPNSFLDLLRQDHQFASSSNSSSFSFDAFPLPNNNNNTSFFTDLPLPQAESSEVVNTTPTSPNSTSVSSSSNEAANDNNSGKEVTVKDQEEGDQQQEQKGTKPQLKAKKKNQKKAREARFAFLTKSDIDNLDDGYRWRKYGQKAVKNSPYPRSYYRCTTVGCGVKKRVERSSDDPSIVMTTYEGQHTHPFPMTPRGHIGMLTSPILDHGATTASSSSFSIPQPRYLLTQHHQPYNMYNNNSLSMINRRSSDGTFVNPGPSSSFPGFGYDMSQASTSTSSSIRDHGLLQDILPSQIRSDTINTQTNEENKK
Chain of His-WRKY48 (recombinant) (Q9FGZ4 whole entry): as above

B1: GST-MPK3 (recombinant) (enzyme, Arabidopsis thaliana, UniProt Q39023 1-370, looked up)
chain: MNTGGGQYTDFPAVETHGGQFISYDIFGSLFEITSKYRPPIIPIGRGAYGIVCSVLDTETNELVAMKKIANAFDNHMDAKRTLREIKLLRHLDHENIIAIRDVVPPPLRRQFSDVYISTELMDTDLHQIIRSNQSLSEEHCQYFLYQLLRGLKYIHSANIIHRDLKPSNLLLNANCDLKICDFGLARPTSENDFMTEYVVTRWYRAPELLLNSSDYTAAIDVWSVGCIFMELMNRKPLFPGKDHVHQMRLLTELLGTPTESDLGFTHNEDAKRYIRQLPNFPRQPLAKLFSHVNPMAIDLVDRMLTFDPNRRITVEQALNHQYLAKLHDPNDEPICQKPFSFEFEQQPLDEEQIKEMIYQEAIALNPTYG
binding result (His-WRKY48 (recombinant)): binds

B2: CIPK6 promoter P1+P2 (dsDNA)
DNA 1: TAAATCGCATCGTGACCGGTCATAAAAAGACACGTGTCGTCATCGCTATCCAAATAATTGACAAACTCGAAGCCGCCAAGGG
DNA 2: CCCTTGGCGGCTTCGAGTTTGTCAATTATTTGGATAGCGATGACGACACGTGTCTTTTTATGACCGGTCACGATGCGATTTA
binding result (WRKY8 [1]): no binding | binding result (WRKY28 [2]): no binding | binding result (WRKY48 [3]): binds

B3: CIPK6 promoter P1 (TTGACA) (dsDNA)
DNA 1: CATCGCTATCCAAATAATTGACAAACTCGAAGCCGCC
DNA 2: GGCGGCTTCGAGTTTGTCAATTATTTGGATAGCGATG
binding result (WRKY8 [4]): no binding | binding result (WRKY28 [5]): no binding | binding result (WRKY48 [6]): binds

B4: CIPK6 promoter P2 (GGTCA) (dsDNA)
DNA 1: GTTTAATTACTATCACACCGGTCACGCTGGTTTACC
DNA 2: GGTAAACCAGCGTGACCGGTGTGATAGTAATTAAAC
binding result (WRKY8 [4]): no binding | binding result (WRKY28 [5]): no binding
